For data set [1], the target named is Wild-type mouse LAG-3 domains 1 and 2 (D1D2) displayed on yeast as N-terminal fusion to Aga2 (mouse; Saccharomyces cerevisiae) (UniProt Q61790). The data set is described as follows: yeast surface display titration, flow cytometry; monomeric D1D2 on yeast.
Data set [2] deals with the molecule itself. Description: flow-FRET in Expi293 cells; self-association.
Experimental: Flow cytometry-based Förster resonance energy transfer (flow-FRET) assays have been utilized for live cell detection of proximal protein associations at distances <100 Å and was thus used to assess LAG-3 dimerization.
Expi293F cells (ThermoFisher Scientific) were transfected with a CFP:YFP:PEI ratio of 0.5:0.5:3 in a 24-well plate at 37° C. in 8% CO₂. Cells were analyzed after 36 hours using a BD LSRII flow cytometer. The 407 nm violet laser was used to excite CFP and the 488 nm blue laser was used to excite YFP. CFP was detected using a 450/50 bandpass filter after excitation with the violet laser and YFP was detected using a 530/30 bandpass filter after excitation with the blue laser.

Regarding C9B7W anti-mouse LAG-3 antibody, the Kd in data set [1] is 136 pM.

B1: Full-length mouse LAG-3 fused to CFP or YFP, on Expi293F cells (receptor, UniProt Q61790 24-521, looked up)
chain: GPGKELPVVWAQEGAPVHLPCSLKSPNLDPNFLRRGGVIWQHQPDSGQPTPIPALDLHQGMPSPRQPAPGRYTVLSVAPGGLRSGRQPLHPHVQLEERGLQRGDFSLWLRPALRTDAGEYHATVRLPNRALSCSLRLRVGQASMIASPSGVLKLSDWVLLNCSFSRPDRPVSVHWFQGQNRVPVYNSPRHFLAETFLLLPQVSPLDSGTWGCVLTYRDGFNVSITYNLKVLGLEPVAPLTVYAAEGSRVELPCHLPPGVGTPSLLIAKWTPPGGGPELPVAGKSGNFTLHLEAVGLAQAGTYTCSIHLQGQQLNATVTLAVITVTPKSFGLPGSRGKLLCEVTPASGKERFVWRPLNNLSRSCPGPVLEIQEARLLAERWQCQLYEGQRLLGATVYAAESSSGAHSARRISGDLKGGHLVLVLILGALSLFLLVAGAFGFHWWRKQLLLRRFSALEHGIQPFPAQRKIEELERELETEMGQEPEPEPEPQLEPEPRQL
notes: whole, on cells; Two plasmids, one CFP and one YFP fusion, co-transfected for flow-FRET; also called mLAG-3^CFP; mLAG-3^YFP; not shown: CFP or YFP from pECFP / pEYFP plasmids
Turning to B1, the binding result in data set [2] is on record as “binds”.

What is called Kd is the equilibrium constant for the complex coming apart. A lower Kd goes with a tighter complex.

The values are drawn from patent US20250198990A1 (Stanford University, published 2025).
